# Assay results from patent US20240109962A1 (SPARX BIOSCIENCE, published 2024).
# Where a chain is given by its changes, count along the chain named.
# B1: Antibody 3B5 (antibody, V domains shown)
# VH: EVQLQQSGPELVKPGASLKISCKASGYTFTDYNMHWVKQSHGKSLEWIGSIYPYNGDTDYNQKFKSKATLTIDNSSSTAFMDLRSLTSEDSAVYYCARENDYDGPPFPYWGLGTLVTVSA
# VL: DIQMTQSSSSFSVSLGDRVTITCKASEDIYNRLAWYQQKSGNAPRLLISGATSLETGVPSRFSGSGSGKDYTLSITSLQTEDVATYYCQQYWSIRTFGGGTKLEIK
# notes: Mouse hybridoma mAb purified from ascites
# B2: Antibody 12D8 (antibody, V domains shown)
# VH: QVQLRQSGPGLVQPSQSLSITCTVSGFSLTSYGVHWVRQSPGKGLEWLGVIWSGGITDYNAAFISRLSISKDNSKSQVFFRMNSLQTNDTAIYYCAREIYGNPDYWGQGTTLTVSS
# VL: DIVMTQSHKFMSTSVGDRVSITCKASQDVSIAVAWFQQKPGQSPKLLIYSASYRYTGVPDRFSGSGSGTDFTFTISSVQAEDLAVYYCQQHYSTPRTFGGGTKLEIK
# notes: as for B1
# B3: Antibody 8A4 (antibody, V domains shown)
# VH: QVQLKESGPGLVAPSQSLSITCTVSGFSLTDYGVNWVRQPPGKGLEWLGMIWGDGNTDYNSALKSRLSISKVNSKSQVFLKMNSLQTDDTARYYCARSSYRYDENIYYYAMDYWGQGTSVTVSS
# VL: DIVMTQSPSSLTVTAGEEVTLSCKSSQSLLNSGIQKNYLTWYQQKPGQPPKLLIYWASTRESGVPDRFTGSVSGTDFTLTISSVQAEDLAVYYCQNDYSLPFTFGSGTKLEIK
# notes: as for B1
# B4: Antibody 6H8 (antibody, V domains shown)
# VH: QIQLVQSGPELKKPGETVRISCKASGYTFTNYGMNWVKQAPGKGLKWMGWINTYTGEPTYADDFRGRFALSLEPSASTASLQINNLKNEDTATYFCARYYDYDYFDYWGQGTTLTVSS
# VL: DIVMTQSPSSLRVSAGEKVTMSCKSSQSLLNGGNQKNYLAWYQQKPGQPPKVLIYGASTRVSGVPDRFTGRGSGIDFTLTISSVEAEDLAVYYCQNDLSYPLTFGAGTKLELK
# notes: as for B1
# B5: Antibody 3C12 (antibody, V domains shown)
# VH: QVQLKESGPGLVAPSQSLSITCTVSGFSLTSYGVHWVRQSPGKGLEWLGVIWAGGTTNYNSALMSRLSISKDNSKSQVFLKMNSLQADDTAMYYCARGGYGHSMDYWGQGTSVTVSS
# VL: B2 VL with I31N, F36Y, S63T, T72I, R96F, G100S
# notes: as for B1
# B6: Antibody h#2B1 (antibody, V domains shown)
# VH: EVQLVESGGGLVQPGGSLRLSCAVSGYSITSGYYWNWIRQAPGKGLEWVAYISYDGNNNYNPSLKNRFTISRDASKNTVYLQMNSLRAEDTAVYYCAREESTMITTAWFAYWGQGTLVTVSS
# VL: DIQMTQSPSSLSASVGDRVTITCRASENIYSNLAWYQQKPGKAPKLLIYGATNLASGVPSRFSGSGSGTDYTLTISSLQPEDFATYYCQHFWDTPYTFGQGTKVEIK
# notes: Humanized variant of 11B12
# B7: Antibody h#2D2 (antibody, V domains shown)
# VH: B6 VH with V79F
# VL: B6 VL
# notes: Humanized variant of 11B12
# B8: Antibody h#2E2 (antibody, V domains shown)
# VH: B6 VH with A74T
# VL: B6 VL
# notes: Humanized variant of 11B12
# B9: Antibody 7C12 (antibody, V domains shown)
# VH: EVQLQQSGPDLVKPGASVKISCKASGYIFTDFNMHWVKQSHGKSLEWIGYIYPFNGGTGYNQKFENMATLTVDISSSTAYMEVRSLTSEDSAVYYCARRGGRGHFDYWGQGTTLTVSS
# VL: DIQMTQSPASLSASVGETVTVTCRASGNIHNYLAWYQQKQGKSPQLLVYNAKTLADGVPSRFSGSGSGIQFSLKINSLQPEDFGSYYCQHFWNTPFTFGSGTKLEIK
# notes: as for B1
# B10: Antibody 15A6 (antibody, V domains shown)
# VH: EVKLVESGGDLVKPGGSLKLSCAASGFTFSTYGMSWVRQTPEKRLEWVATISGSNSYTYYPDSVKGRFTISRDNAKNNLYLQMSSLRSEDTALYYCTRHENGYYFYAMDYWGQGTSVTVSS
# VL: DVQITQSPSYLTASPGETITINCRSSKSITKYLAWYQEKPGKTNKLLIYSGSTLQSGIPSRFSGSGSGTDFTLTISSLEPEDFAMYYCQQHSEYPWTFGGGTRLEIK
# notes: as for B1
# B11: Antibody 2C1 (antibody, V domains shown)
# VH: EVKLVEPGGGLVQPGGSLRLSCATSGFTFSDFYMGWVRQPPGKRLEWIAASGNKAHDYATEYSASVKGRFFVSRDTFQSILYLQMNALRAEDTAIYYCARSYYYGSSAWFTYWGQGTLVTVSV
# VL: DIVMTQSHKFMSTSIRDRVTIACKASQDVGTAVAWYQQKPGQSPKLLIFWASTRHAGVPDRFTGSGSGTDFTLTISNVQSEDLTDYFCQQYSSYPLTFGAGTKLELK
# notes: as for B1
# Target: T1, human LILRB3 expressed on 293T cells (human, UniProt O75022 24-631)
# T1 construct: whole, on cells
# Experiment: flow cytometry on 293T transfectants, MFI
# Experimental: (§1) The cells were then immobilized with glutaraldehyde in the presence of 5% defatted milk at room temperature for 2 hours. An anti-LILRB2 antibody (5 μg/ml) was added to each well and incubated at room temperature for 1 hours. An Alex Flour®-labelled goat anti-mouse secondary antibody (1:2,000 dilution) was then added into each well and incubated at room temperature for 30′. The cells were washed twice with PBS after the staining. Fluorescence intensities (MFI) were measured.
row,binding result,Binder
1,no binding (tested: 5 µg/ml),B1
2,no binding (tested: 5 µg/ml),B2
3,no binding (tested: 5 µg/ml),B3

# Target: T2, human LILRB1 expressed on 293T cells (human, UniProt Q8NHL6 24-650)
# T2 construct: whole, on cells
# T2 sequence (Q8NHL6 24-650): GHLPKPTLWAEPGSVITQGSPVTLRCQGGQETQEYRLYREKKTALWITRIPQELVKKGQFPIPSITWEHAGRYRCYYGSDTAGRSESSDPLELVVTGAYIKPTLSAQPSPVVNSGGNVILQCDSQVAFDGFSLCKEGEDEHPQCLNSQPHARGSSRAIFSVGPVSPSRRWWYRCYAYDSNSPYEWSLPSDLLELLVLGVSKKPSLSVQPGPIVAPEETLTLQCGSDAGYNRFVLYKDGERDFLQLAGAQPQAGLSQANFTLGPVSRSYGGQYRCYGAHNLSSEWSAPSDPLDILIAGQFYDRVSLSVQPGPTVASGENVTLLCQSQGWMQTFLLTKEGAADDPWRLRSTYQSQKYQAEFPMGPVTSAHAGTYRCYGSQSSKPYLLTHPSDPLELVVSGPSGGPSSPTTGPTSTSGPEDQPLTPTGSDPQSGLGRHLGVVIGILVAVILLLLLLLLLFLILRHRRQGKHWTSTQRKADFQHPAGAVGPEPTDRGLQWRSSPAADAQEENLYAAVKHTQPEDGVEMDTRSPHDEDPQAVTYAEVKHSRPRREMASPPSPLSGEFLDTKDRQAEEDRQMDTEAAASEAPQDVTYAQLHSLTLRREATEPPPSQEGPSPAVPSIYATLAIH
# Experiment: flow cytometry on 293T transfectants, MFI
# Experimental: as §1
row,binding result,Binder
1,no binding (tested: 5 µg/ml),B1
2,no binding (tested: 5 µg/ml),B2
3,no binding (tested: 5 µg/ml),B3

# Target: T3, LILRB1-His
# T3 construct: also called His-tagged LILRB1; recombinant LILRB1 protein
# T3 sequence (chain, as listed by the source limits assumed): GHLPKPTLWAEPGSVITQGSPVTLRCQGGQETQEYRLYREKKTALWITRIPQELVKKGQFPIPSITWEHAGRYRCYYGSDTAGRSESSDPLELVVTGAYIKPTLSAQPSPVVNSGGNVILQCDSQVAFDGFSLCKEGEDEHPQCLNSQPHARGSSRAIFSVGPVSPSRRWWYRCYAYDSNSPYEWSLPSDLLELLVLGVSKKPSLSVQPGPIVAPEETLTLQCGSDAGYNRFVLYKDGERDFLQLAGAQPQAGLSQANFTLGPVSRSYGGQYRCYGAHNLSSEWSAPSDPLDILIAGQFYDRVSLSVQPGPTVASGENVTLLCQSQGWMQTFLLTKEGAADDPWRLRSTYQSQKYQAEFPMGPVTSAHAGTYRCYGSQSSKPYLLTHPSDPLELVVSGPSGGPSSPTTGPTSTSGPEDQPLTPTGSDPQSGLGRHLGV
# Experiment: ELISA on recombinant His-tagged protein, OD450
row,binding result,Binder
1,no binding,B4
2,no binding,B1
3,no binding,B2
4,no binding,B5
5,no binding,B3

# Target: T4, LILRB3-His
# T4 construct: also called His-tagged LILRB3; recombinant LILRB3 protein
# Experiment: ELISA on recombinant His-tagged protein, OD450
row,binding result,Binder
1,no binding,B4
2,no binding,B1
3,no binding,B5
4,no binding,B3

# Target: T5, human LILRB2 expressed on cells (293T-LILRB2, CHO-K1-LILRB2) (human, UniProt Q8N423 22-597)
# T5 construct: whole, on cells; the cell line is named under assay; also called HEK293T-LILRB2
# T5 sequence (Q8N423 22-597): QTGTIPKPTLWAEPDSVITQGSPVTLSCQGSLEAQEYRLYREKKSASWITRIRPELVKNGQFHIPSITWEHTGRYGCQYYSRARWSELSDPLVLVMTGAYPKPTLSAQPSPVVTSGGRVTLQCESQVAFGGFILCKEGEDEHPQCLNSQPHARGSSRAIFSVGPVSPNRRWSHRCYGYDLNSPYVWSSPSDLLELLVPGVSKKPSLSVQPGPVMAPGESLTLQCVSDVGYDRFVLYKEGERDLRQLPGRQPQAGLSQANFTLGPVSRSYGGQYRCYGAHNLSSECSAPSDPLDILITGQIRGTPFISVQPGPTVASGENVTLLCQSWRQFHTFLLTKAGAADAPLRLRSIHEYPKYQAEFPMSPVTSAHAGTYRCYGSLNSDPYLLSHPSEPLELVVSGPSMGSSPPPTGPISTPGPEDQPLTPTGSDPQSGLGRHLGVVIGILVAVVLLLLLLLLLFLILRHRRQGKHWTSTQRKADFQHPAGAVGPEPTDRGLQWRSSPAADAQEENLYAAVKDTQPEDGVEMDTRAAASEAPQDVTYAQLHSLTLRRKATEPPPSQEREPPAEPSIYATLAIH
# Experiment: flow cytometry, blockade of His-tagged HLA-G tetramer binding to 293T-LILRB2 cells; fit table under the graph, row headed EC50
# Experimental: (§2) Serial diluted humanized LILRB2 antibodies were then added to the mixture and incubated at room temperature for another 45 minutes. The binding of HLA-G/LILRB2 was detected afterwards using a secondary PE-labeled anti-His tag antibody via flow cytometry.
row,EC50,Binder
1,0.219 nM,B6
2,0.131 nM,B7
3,0.389 nM,B8

# Target: LILRB2 antigen of the ELISA of Table 5 (format not specified) (UniProt Q8N423 22-460, limits assumed)
# Sequence (Q8N423 22-460 limits assumed): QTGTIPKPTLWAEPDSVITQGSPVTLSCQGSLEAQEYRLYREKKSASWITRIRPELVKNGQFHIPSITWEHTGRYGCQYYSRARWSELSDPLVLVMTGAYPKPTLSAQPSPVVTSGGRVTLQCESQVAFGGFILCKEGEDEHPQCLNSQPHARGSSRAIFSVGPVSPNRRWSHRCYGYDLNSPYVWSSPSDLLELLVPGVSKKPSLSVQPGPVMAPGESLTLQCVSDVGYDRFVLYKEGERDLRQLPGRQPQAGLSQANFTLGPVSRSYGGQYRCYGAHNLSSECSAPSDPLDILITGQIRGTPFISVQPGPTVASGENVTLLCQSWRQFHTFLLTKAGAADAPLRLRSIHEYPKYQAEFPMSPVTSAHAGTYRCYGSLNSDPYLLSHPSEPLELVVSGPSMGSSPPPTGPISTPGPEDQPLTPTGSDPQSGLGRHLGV
# Experiment: ELISA, antibody titration
row,Kd,Binder
1,5.7 nM,B4
2,0.631 nM,B9
3,2.93 nM,B1
4,0.725 nM,B10
5,4.37 nM,B2
6,5.01 nM,B5
7,0.493 nM,B3

# Target: T6, His-tagged human LILRB2 polypeptide (human, UniProt Q8N423 22-460)
# T6 construct: SPR analyte; also called His-tagged human LILBR2 polypeptide; not shown: His tag
# T6 sequence (Q8N423 22-460 limits assumed): as above
# Experiment: SPR, antibody on CM5 chip, His-LILRB2 analyte, 1:1 model
# Experimental: Surface plasmon resonance (SPR) was used to examine binding activities of exemplary anti-LILBR2 antibodies disclosed herein. Briefly, the anti-LILBR2 antibody was diluted in a coating buffer to a concentration of 30 μg/ml, loaded onto CM5 chips at 10 μl/min to allow coating of the antibody on the surface of the CM5 chip. […] Binding affinity was measured based on the 1:1 binding model.
Kd,koff,kon,Binder
0.792 nM,0.000209 s⁻¹,263000 M⁻¹ s⁻¹,B9
5.45 nM,0.00137 s⁻¹,251000 M⁻¹ s⁻¹,B10
0.227 nM,0.00014 s⁻¹,618000 M⁻¹ s⁻¹,B2
0.185 nM,0.000174 s⁻¹,940000 M⁻¹ s⁻¹,B3

# Target: T5, human LILRB2 expressed on cells …
# Experiment: flow cytometry on 293T-LILRB2 cells, serial dilution, APC anti-human IgG; fit table under the graph
# Text: (§3) The cells were washed and then subject to flow cytometry to measure levels of fluorescent signals.
Bmax,Kd,Binder
608000 RFU,0.362 nM,B7

# Target: T1, human LILRB3 expressed on 293T cells
# Experiment: cell ELISA on fixed 293T transfectants, OD490
# Experimental: (§4) The cells were then immobilized with glutaraldehyde in the presence of 5% defatted milk at room temperature for 2 hours. An anti-LILRB2 antibody (2 μg/ml) was added to each well and incubated at room temperature for 2 hours. An HRP-labelled goat anti-mouse secondary antibody was then added into each well and incubated at room temperature for one hour. An HRP substrate, o-phenylenediamine dihydrochloride (OPD) was then added to each well. The plate was incubated at room temperature for 15 min to allow color development and OD₄₉₀ values were determined.
row,binding result,Binder
1,no binding (tested: 2 µg/ml),B4
2,no binding (tested: 2 µg/ml),B9
3,no binding (tested: 2 µg/ml),B5
4,no binding (tested: 2 µg/ml),B11

# Target: T2, human LILRB1 expressed on 293T cells
# Experiment: cell ELISA on fixed 293T transfectants, OD490
# Experimental: as §4
row,binding result,Binder
1,no binding (tested: 2 µg/ml),B4
2,no binding (tested: 2 µg/ml),B9
3,no binding (tested: 2 µg/ml),B10
4,no binding (tested: 2 µg/ml),B5
5,no binding (tested: 2 µg/ml),B11

# Target: T5, human LILRB2 expressed on cells …
# Experiment: flow cytometry on 293T-LILRB2 cells, serial dilution, APC anti-human IgG; fit table under the graph
# Remark: another data set of the same source
# Text: as §3
Bmax,Kd,Binder
606000 RFU,0.256 nM,B6
615000 RFU,0.317 nM,B8

# Target: T5, human LILRB2 expressed on cells …
# Experiment: flow cytometry, blockade of His-tagged HLA-G tetramer binding to 293T-LILRB2 cells; fit table under the graph
# Experimental: as §2
row,Span,Binder
1,8850 RFU,B6
2,7640 RFU,B7
3,8780 RFU,B8
